# Measured values as given in patent US20230407373A1 (priority 2020, published 2023).
# Like-named read-outs stand apart in the source and are kept apart here.
# How the values were obtained:
# gRNA of HCoV-OC43 = type: binding; conditions: for target (spectral count) / background (spectral count): type g_36_m, 36 hpi, Probe I; for target (spectral count): HCoV-OC43-infected HCT-8 cells; for background (spectral count): uninfected-probe control; for target (spectral count, OC43 Probe I RNP capture) / background (spectral count, no-probe control): type n_48_v: 48 hours post-infection; for target (spectral count, OC43 Probe I RNP capture): infected cells, unweighted spectral count; for background (spectral count, no-probe control): no-probe control on infected cells
# HCoV-OC43 gRNA and sgRNA = type: binding; conditions: for target (unweighted spectral count, OC43 Probe II) / background (unweighted spectral count, no-probe control): type n_48_v, 48 hpi; for target (unweighted spectral count, OC43 Probe II): OC43 Probe II capture on infected cells; for background (unweighted spectral count, no-probe control): no-probe control on infected cells; for target (unweighted spectral count, OC43 Probe II capture) / target (unweighted spectral count): tested against no-probe control; for target (unweighted spectral count, OC43 Probe II capture): FDR<10%; for target (spectral count) / background (spectral count): type s_36_m, Probe II; for target (spectral count): HCoV-OC43-infected HCT-8 cells; for background (spectral count): uninfected-probe control; for target (unweighted spectral count): OC43 Probe II, 24 hpi (type n_24_v), infected cells
Molecule,target (spectral count) (gRNA of HCoV-OC43),background (spectral count) (gRNA of HCoV-OC43),"target (spectral count, OC43 Probe I RNP capture) (gRNA of HCoV-OC43)","background (spectral count, no-probe control) (gRNA of HCoV-OC43)","target (unweighted spectral count, OC43 Probe II) (HCoV-OC43 gRNA and sgRNA)","background (unweighted spectral count, no-probe control) (HCoV-OC43 gRNA and sgRNA)","target (unweighted spectral count, OC43 Probe II capture) (HCoV-OC43 gRNA and sgRNA; 24 hpi, type n_24_v)","target (unweighted spectral count, OC43 Probe II capture) (HCoV-OC43 gRNA and sgRNA; 36 hpi, type n_36_v)",target (spectral count) (HCoV-OC43 gRNA and sgRNA; 36 hpi),background (spectral count) (HCoV-OC43 gRNA and sgRNA; 36 hpi),target (unweighted spectral count) (HCoV-OC43 gRNA and sgRNA)
"XRN2: host protein, UniProt Q9H0D6 (protein, UniProt Q9H0D6 1-950, looked up) 5'-3' exoribonuclease 2: MGVPAFFRWLSRKYPSIIVNCVEEKPKECNGVKIPVDASKPNPNDVEFDNLYLDMNGIIHPCTHPEDKPAPKNEDEMMVAIFEYIDRLFSIVRPRRLLYMAIDGVAPRAKMNQQRSRRFRASKEGMEAAVEKQRVREEILAKGGFLPPEEIKERFDSNCITPGTEFMDNLAKCLRYYIADRLNNDPGWKNLTVILSDASAPGEGEHKIMDYIRRQRAQPNHDPNTHHCLCGADADLIMLGLATHEPNFTIIREEFKPNKPKPCGLCNQFGHEVKDCEGLPREKKGKHDELADSLPCAEGEFIFLRLNVLREYLERELTMASLPFTFDVERSIDDWVFMCFFVGNDFLPHLPSLEIRENAIDRLVNIYKNVVHKTGGYLTESGYVNLQRVQMIMLAVGEVEDSIFKKRKDDEDSFRRRQKEKRKRMKRDQPAFTPSGILTPHALGSRNSPGSQVASNPRQAAYEMRMQNNSSPSISPNTSFTSDGSPSPLGGIKRKAEDSDSEPEPEDNVRLWEAGWKQRYYKNKFDVDAADEKFRRKVVQSYVEGLCWVLRYYYQGCASWKWYYPFHYAPFASDFEGIADMPSDFEKGTKPFKPLEQLMGVFPAASGNFLPPSWRKLMSDPDSSIIDFYPEDFAIDLNGKKYAWQGVALLPFVDERRLRAALEEVYPDLTPEETRRNSLGGDVLFVGKHHPLHDFILELYQTGSTEPVEVPPELCHGIQGKFSLDEEAILPDQIVCSPVPMLRDLTQNTVVSINFKDPQFAEDYIFKAVMLPGARKPAAVLKPSDWEKSSNGRQWKPQLGFNRDRRPVHLDQAAFRTLGHVMPRGSGTGIYSNAAPPPVTYQGNLYRPLLRGQAQIPKLMSNMRPQDSWRGPPPLFQQQRFDRGVGAEPLLPWNRMLQTQNAAFQPNQYQMLAGPGGYPPRRDDRGGRQGYPREGRKYPLPPPSGRYNWN",8,1,9,1,10,1,,,,,
"HNRNPH2: host protein, UniProt P55795 (protein, UniProt P55795 1-449, looked up) Heterogeneous nuclear …: MMLSTEGREGFVVKVRGLPWSCSADEVMRFFSDCKIQNGTSGIRFIYTREGRPSGEAFVELESEEEVKLALKKDRETMGHRYVEVFKSNSVEMDWVLKHTGPNSPDTANDGFVRLRGLPFGCSKEEIVQFFSGLEIVPNGMTLPVDFQGRSTGEAFVQFASQEIAEKALKKHKERIGHRYIEIFKSSRAEVRTHYDPPRKLMAMQRPGPYDRPGAGRGYNSIGRGAGFERMRRGAYGGGYGGYDDYGGYNDGYGFGSDRFGRDLNYCFSGMSDHRYGDGGSSFQSTTGHCVHMRGLPYRATENDIYNFFSPLNPMRVHIEIGPDGRVTGEADVEFATHEDAVAAMAKDKANMQHRYVELFLNSTAGTSGGAYDHSYVELFLNSTAGASGGAYGSQMMGGMGLSNQSSYGGPASQQLSGGYGGGYGGQSSMSGYDQVLQENSSDYQSNLA",12,1,10,1,10,1,4,8,8,1,
"LRRC59 (protein, UniProt Q96AG4 1-307, looked up) Leucine-rich …: MTKAGSKGGNLRDKLDGNELDLSLSDLNEVPVKELAALPKATILDLSCNKLTTLPSDFCGLTHLVKLDLSKNKLQQLPADFGRLVNLQHLDLLNNKLVTLPVSFAQLKNLKWLDLKDNPLDPVLAKVAGDCLDEKQCKQCANKVLQHMKAVQADQERERQRRLEVEREAEKKREAKQRAKEAQERELRKREKAEEKERRRKEYDALKAAKREQEKKPKKEANQAPKSKSGSRPRKPPPRKHTRSWAVLKLLLLLLLFGVAGGLVACRVTELQQQPLCTSVNTIYDNAVQGLRRHEILQWVLQTDSQQ",,,9,1,5,1,,6,,,
"DDX1: host protein, UniProt Q92499 (protein, UniProt Q92499 1-740, looked up) ATP-dependent RNA helicase …: MAAFSEMGVMPEIAQAVEEMDWLLPTDIQAESIPLILGGGDVLMAAETGSGKTGAFSIPVIQIVYETLKDQQEGKKGKTTIKTGASVLNKWQMNPYDRGSAFAIGSDGLCCQSREVKEWHGCRATKGLMKGKHYYEVSCHDQGLCRVGWSTMQASLDLGTDKFGFGFGGTGKKSHNKQFDNYGEEFTMHDTIGCYLDIDKGHVKFSKNGKDLGLAFEIPPHMKNQALFPACVLKNAELKFNFGEEEFKFPPKDGFVALSKAPDGYIVKSQHSGNAQVTQTKFLPNAPKALIVEPSRELAEQTLNNIKQFKKYIDNPKLRELLIIGGVAARDQLSVLENGVDIVVGTPGRLDDLVSTGKLNLSQVRFLVLDEADGLLSQGYSDFINRMHNQIPQVTSDGKRLQVIVCSATLHSFDVKKLSEKIMHFPTWVDLKGEDSVPDTVHHVVVPVNPKTDRLWERLGKSHIRTDDVHAKDNTRPGANSPEMWSEAIKILKGEYAVRAIKEHKMDQAIIFCRTKIDCDNLEQYFIQQGGGPDKKGHQFSCVCLHGDRKPHERKQNLERFKKGDVRFLICTDVAARGIDIHGVPYVINVTLPDEKQNYVHRIGRVGRAERMGLAISLVATEKEKVWYHVCSSRGKGCYNTRLKEDGGCTIWYNEMQLLSEIEEHLNCTISQVEPDIKVPVDEFDGKVTYGQKRAAGGGSYKGHVDILAPTVQELAALEKEAQTSFLHLGYLPNQLFRTF",12,1,12,1,11,1,,9,9,1,7
"SRSF10 (protein, UniProt O75494 1-262, looked up) Serine/arginine-rich splicing …: MSRYLRPPNTSLFVRNVADDTRSEDLRREFGRYGPIVDVYVPLDFYTRRPRGFAYVQFEDVRDAEDALHNLDRKWICGRQIEIQFAQGDRKTPNQMKAKEGRNVYSSSRYDDYDRYRRSRSRSYERRRSRSRSFDYNYRRSYSPRNSRPTGRPRRSRSHSDNDRFKHRNRSFSRSKSNSRSRSKSQPKKEMKAKSRSRSASHTKTRGTSKTDSKTHYKSGSRYEKESRKKEPPRSKSQSRSQSRSRSKSRSRSWTSPKSSGH",,,9,1,9,1,,6,,,6
"TXN (protein, UniProt P10599 2-105, looked up) Thioredoxin: VKQIESKTAFQEALDAAGDKLVVVDFSATWCGPCKMIKPFFHSLSEKYSNVIFLEVDVDDCQDVASECEVKCMPTFQFFKKGQKVGEFSGANKEKLEATINELV",,,8,1,,,,6,,,
"UPF1: host protein, UniProt Q92900 (protein, UniProt Q92900 1-1129, looked up) Regulator of nonsense …: MSVEAYGPSSQTLTFLDTEEAELLGADTQGSEFEFTDFTLPSQTQTPPGGPGGPGGGGAGGPGGAGAGAAAGQLDAQVGPEGILQNGAVDDSVAKTSQLLAELNFEEDEEDTYYTKDLPIHACSYCGIHDPACVVYCNTSKKWFCNGRGNTSGSHIVNHLVRAKCKEVTLHKDGPLGETVLECYNCGCRNVFLLGFIPAKADSVVVLLCRQPCASQSSLKDINWDSSQWQPLIQDRCFLSWLVKIPSEQEQLRARQITAQQINKLEELWKENPSATLEDLEKPGVDEEPQHVLLRYEDAYQYQNIFGPLVKLEADYDKKLKESQTQDNITVRWDLGLNKKRIAYFTLPKTDSGNEDLVIIWLRDMRLMQGDEICLRYKGDLAPLWKGIGHVIKVPDNYGDEIAIELRSSVGAPVEVTHNFQVDFVWKSTSFDRMQSALKTFAVDETSVSGYIYHKLLGHEVEDVIIKCQLPKRFTAQGLPDLNHSQVYAVKTVLQRPLSLIQGPPGTGKTVTSATIVYHLARQGNGPVLVCAPSNIAVDQLTEKIHQTGLKVVRLCAKSREAIDSPVSFLALHNQIRNMDSMPELQKLQQLKDETGELSSADEKRYRALKRTAERELLMNADVICCTCVGAGDPRLAKMQFRSILIDESTQATEPECMVPVVLGAKQLILVGDHCQLGPVVMCKKAAKAGLSQSLFERLVVLGIRPIRLQVQYRMHPALSAFPSNIFYEGSLQNGVTAADRVKKGFDFQWPQPDKPMFFYVTQGQEEIASSGTSYLNRTEAANVEKITTKLLKAGAKPDQIGIITPYEGQRSYLVQYMQFSGSLHTKLYQEVEIASVDAFQGREKDFIILSCVRANEHQGIGFLNDPRRLNVALTRARYGVIIVGNPKALSKQPLWNHLLNYYKEQKVLVEGPLNNLRESLMQFSKPRKLVNTINPGARFMTTAMYDAREAIIPGSVYDRSSQGRPSSMYFQTHDQIGMISAGPSHVAAMNIPIPFNLVMPPMPPPGYFGQANGPAAGRGTPKGKTGRGGRQKNRFGLPGPSQTNLPNSQASQDVASQPFSQGALTQGYISMSQPSQMSQPGLSQPELSQDSYLGDEFKSQIDVALSQDSTYQGERAYQHGGVTGLSQY",,,13,1,16,1,,16,16,1,8
